Here are results for one molecule from publication PMC9688306, “Construction of Aptamer-Based Nanobiosensor for Breast Cancer Biomarkers Detection Utilizing g-C3N4/Magnetic Nano-Structure”.

For the data set, the target named is CA 15-3 (Cancer Antigen 15-3) (UniProt P15941 24-1097). In words: electrochemical aptasensor (CV, SWV, EIS); label-free, ferri/ferrocyanide redox probe; aptamer on g-C3N4/Fe3O4; linear 10-90 U/mL; PBS pH 7.4 (0.1 M), room temperature, 35 min incubation; 0.2 mM ferricyanide probe (label-free) or methylene blue in PBS (label-based).
Sequence of CA 15-3 (Cancer Antigen 15-3) (P15941 24-1097): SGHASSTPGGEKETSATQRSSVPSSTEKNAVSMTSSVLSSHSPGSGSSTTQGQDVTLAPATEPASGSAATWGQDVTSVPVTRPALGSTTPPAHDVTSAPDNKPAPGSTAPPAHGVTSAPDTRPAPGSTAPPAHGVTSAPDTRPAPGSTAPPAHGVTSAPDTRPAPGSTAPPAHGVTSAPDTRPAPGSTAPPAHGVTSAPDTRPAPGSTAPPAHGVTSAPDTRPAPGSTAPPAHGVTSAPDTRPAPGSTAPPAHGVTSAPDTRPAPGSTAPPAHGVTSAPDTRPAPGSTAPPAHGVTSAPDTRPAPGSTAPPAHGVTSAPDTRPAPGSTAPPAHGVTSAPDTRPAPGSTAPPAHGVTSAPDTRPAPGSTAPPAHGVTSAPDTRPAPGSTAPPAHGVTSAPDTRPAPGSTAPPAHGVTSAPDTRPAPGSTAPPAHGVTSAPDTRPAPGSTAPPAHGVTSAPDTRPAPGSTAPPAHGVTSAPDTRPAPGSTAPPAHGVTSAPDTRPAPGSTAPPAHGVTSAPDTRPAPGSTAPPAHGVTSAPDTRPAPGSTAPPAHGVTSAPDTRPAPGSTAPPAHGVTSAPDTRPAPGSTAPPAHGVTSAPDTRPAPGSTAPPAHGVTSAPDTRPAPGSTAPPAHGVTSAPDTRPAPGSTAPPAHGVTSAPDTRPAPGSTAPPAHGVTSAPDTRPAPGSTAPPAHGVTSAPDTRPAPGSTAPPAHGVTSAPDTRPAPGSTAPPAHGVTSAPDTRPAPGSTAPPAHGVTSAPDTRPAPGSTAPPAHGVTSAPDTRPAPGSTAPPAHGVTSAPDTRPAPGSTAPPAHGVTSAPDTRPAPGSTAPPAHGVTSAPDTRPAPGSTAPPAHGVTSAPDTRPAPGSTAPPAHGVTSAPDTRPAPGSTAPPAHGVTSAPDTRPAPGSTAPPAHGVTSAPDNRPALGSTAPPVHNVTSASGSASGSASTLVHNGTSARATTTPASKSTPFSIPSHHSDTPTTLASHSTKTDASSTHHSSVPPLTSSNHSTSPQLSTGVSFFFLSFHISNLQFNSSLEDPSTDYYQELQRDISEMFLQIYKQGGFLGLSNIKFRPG

B1: CA 15-3 aptamer (ssDNA)
DNA: GAAGTGAATATGACAGATCACAACT
B1: the binding result is “binds”.
